B1: Arhgef6, endogenous in murine DC2.4 cells (natural protein)
chain: MNPEERLVTWLISLGVLESPKKTVCDPEEFLKSSLKNGVVLCKLINRLLPGSVEKYCLEPQTEADCIDNINDFLKGCATLQVEVFEPDDLYSGANFSKVLNTLLAVNKATEDQLSERPCGRSSSLSAATSSQTNPQVAVPSTAPEQHSEEKAEMTENGSHQLIVKARFNFKQTNEDELSVCKGDIIYVTRVEEGGWWEGTLNGRTGWFPSNYVREIKPSERPLSPKAIKGFDTAPLTKNYYTVVLQNILDTEKEYAKELQSLLVTYLRPLQSNNNLSTVEFTCLLGNFEEVCTFQQTLCQALEECSKFPENQHKVGGCLLNLMPHFKSMYLAYCANHPSAVNVLTQHSDDLERFMENQGASSPGILILTTSLSKPFMRLEKYVTLLQELERHMEDTHPDHQDILKAIIAFKTLMGQCQDLRKRKQLELQILSEPIQAWEGDDIKTLGNVIFMSQVVMQHGACEEKEERYFLLFSSVLIMLSASPRMSGFMYQGKIPIAGMVVNRLDEIEGSDCMFEITGSTVERIVVHCNNNQDFQEWMEQLNRLTKGPTSCGSLSKTSSSSCSTHSSFSSTGQPRGPLEPPQIIKPWSLSCLRPAPPLRPSAALGYKERMSYILKESSKSPKTMKKFLHKRKTERKASEEEYVIRKSTAALEEDAQILKVIEAYCTSASFQQGTRKDSVPQVLLPEEEKLIIEETRSNGQTIIEEKSLVDTVYALKDEVKELKQENKKMKQCLEEELKSRKDLEKLVRKLLKQTDECIRSESSSKTSILQ
B2: Sorbs1 (Cap), endogenous in murine DC2.4 cells (natural protein)
chain: MSSECDVGSSKAVVNGLASGNHGPDKDMDPTKICTGKGTVTLRASSSYRGTPSSSPVSPQESPKHESKSGLEPEDPSADEWKLSSSADTNGNAQPSPLAAKGYRSVHPSLSADKPQGSPLLNEVSSSHIETDSQDFPPTSRPSSAYPSTTIVNPTIVLLQHNRDPASERRAGEQDPVPTPAELTSPGRASERRAKDASRRVVRSAQDLSDVSTDEVGIPLRNTERSKDWYKTMFKQIHKLNRDDDSDVHSPRYSFSDDTKSPLSVPRSKSEMNYIEGEKVVKRSATLPLPARSSSLKSSPERNDWEPLDKKVDTRKYRAEPKSIYEYQPGKSSVLTNEKMSRDISPEEIDLKNEPWYKFFSELEFGRPTNLEKDLSFCQAELEADLEKVETVNKSPSANSPQSSAVSPTPDITSEPPGYIYSSNFHAVKRESDGTPGGLASLENERQIYKSVLEGGDIPLQGLSGLKRPSSSASTKVDRKGGNAHMISSSSVHSRTFHTSNALGPGCKHKKPLSAAKACISEILPSKFKPRLSAPSALLQEQKSVLLPSEKAQSCENLCVSLNDSKRGLPLRVGGSIENLLMRSRRDYDSKSSSTMSLQEYGTSSRRPCPLSRKAGLHFSMFYRDMHQINRAGLSLGSISSSSVRDLASHFERSSLTLARGELGASQEGSEHIPKHTVSSRITAFEQLIQRSRSMPSLDFSGRLSKSPTPVLSRSGLTSARSAESLLESTKLRPREMDGMDSGGVYASPTCSNMADHALSFRSLVPSEPLSICSDELDHCSNVSNDSREGSGGSVHGDFPKHRLNKCKGTCPASYTRFTTIRKHEQQSSRQSDWRSDSRGDKNSLLRNIHLMSPLPFRLKKPLQQHPRQPPPSDSSESPAGQKADLPCHDPQDQPHSAGKPQVPTRLSSRHTMARLSHNSEPPLDRPAGLEDCTRAINNGNPVPYSDHGLDRNNNPQSELAAAHGDSESPRHFIPADYLESTEEFIRRRHDDKEKLLADQRRLKREQEEADIAARRHTGVIPTHHQFITNERFGDLLNIDDTAKRKSGLEMRPARAKFDFKAQTLKELPLQKGDVVYIYRQIDQNWYEGEHHGRVGIFPRTYIELLPPAEKAQPRKLAPVQVLEYGEAIAKFNFNGDTQVEMSFRKGERITLLRQVDENWYEGRIPGTSRQGIFPITYVDVLKRPLVKTPVDYIDLPYSSSPSRSATVSPQQPQAQQRRVTPDRSQPSLDLCSYQALYSYVPQNDDELELRDGDIVDVMEKCDDGWFVGTSRRTRQFGTFPGNYVKPLYL
B3: Nckap1l (Hem1), endogenous in murine DC2.4 cells (natural protein)
chain: MSLTSAYQLKLAEKLTILNDRGQGVLIRMYNIKKTCSDSKSKPPFLLEKSMESCLKYINKKFPNIDVRNSTQHLGPVHREKAEIIRFLTNYYQSFVDVMEFRDHVYELLNTIDACQCHFDINLNFDFTRSYLDLIVTYTSVILLLSRIEDRRILIGMYNCAHEMLHGHSDPSFARLGQMVLEYDHPLKKLTEEFGPHTKAVSGALLSLHFLFVRRNQGAEQWRSAQLLSLISSPPAMINPANSDTMACEYLSVEVMERWIIIGFLLCHGCLNSNSQCQKLWKLCLEGSLYITLIREDVLQVHKVTEDLFSSLKGYSKRVADIKESKEHAITNSGQFHCQRRQFLRTAVKELETVLNDEPGLLGPKALFAFMALSFIRDEVTWLVRHTENVTKTKTPEDYADSSIAELLFLLEEIRALVRRHIKVIQQYHLQYLARFDVLVLSDIIQNLSVCPEEESVIMSSFVSILSSLNLKQVDNEEKFDFSGLRLDWFRLQAYTSVSKAPLHLHENPDLAKVMNLIIFHSQMLDSVEKMLVETSDLSTFCFHLRTFEKMFATTLEEPTMLRYTIAFPLICAHFVHCVHEMCPEEYPHLKNHGLHHCNSFLEDLAKQTSNCVLEICAEQRNLNEQLLPKHCATTISKAKNKKSMKQRQAPRKGEPERDKPGAESHRKNRSLVTNMDKLHLNLTELALAMNHVHSFSVFEHTIFPSEYLSSHLEARLNRAIVTLAGYNATTQEILRPSELLAGVKAYISFIQSLAQFLGADASRIVRNALLQQTQPLDSSGEQTVTTLYTNWYLESLLRQASSGAIVLSPAMQAFISLPRDGEQNFSAEEFSDISEMRALAEILGPYGMKFLSENLMWHVTSQIVELKKLVVENMDILVQIRSNFSKPELMASLLPQLTGAENVLKRMTIIGVILSFRAMAQEGLQEVFSAHCPFLMGPIECLKEFVTPDTDIKVTLSVFELACAAGVSCDIDPALVAAIANLKADNSSPEEEYKVACLLLIFLAVSLPLLATDPSSFFSIEKDGYNNNIHCLTKAIIQVSAALFTLYNKNIETHLKEFLVVASVSLLQLGQETDKLKTRNRESISLLMRLVVEESPFLTLDMLESCFPYVLLRNAYREVSRAFYLNRLPASSH
B4: Sh3rf1, endogenous in murine DC2.4 cells (natural protein)
chain: MDESALLDLLECPVCLERLDASAKVLPCQHTFCKRCLLGIVGSRNELRCPECRTLVGSGVDELPSNILLVRLLDGIKQRPWKPGPGGGGGTTCTNTLRAQGSTVVNCGSKDLQSSQCGQQPRVQAWSPPVRGIPQLPCAKALYNYEGKEPGDLKFSKGDIIILRRQVDENWYHGEVSGVHGFFPTNFVQIIKPLPQPPPQCKALYDFEVKDKEADKDCLPFAKDDVLTVIRRVDENWAEGMLADKIGIFPISYVEFNSAAKQLIEWDKPPVPGVDTAECPSATAQSTSASKHPDTKKNTRKRHSFTSLTMANKSSQGSQNRHSMEISPPVLISSSNPTAAARISELSGLSCSAPSQVHISTTGLIVTPPPSSPVTTGPAFTFPSDVPYQAALGSMNPPLPPPPLLAATVLASTPSGATAAVAAAAAAAAAAGMGPRPVMGSSEQIAHLRPQTRPSVYVAIYPYTPRKEDELELRKGEMFLVFERCQDGWYKGTSMHTSKIGVFPGNYVAPVTRAVTNASQAKVSMSTAGQASRGVTMVSPSTAGGPTQKPQGNGVAGNPSVVPTAVVSAAHIQTSPQAKVLLHMSGQMTVNQARNAVRTVAAHSQERPTAAVTPIQVQNAACLGPASVGLPHHSLASQPLPPMAGPAAHGAAVSISRTNAPMACAAGASLASPNMTSAMLETEPSGRTVTILPGLPTSPESAASACGNSSAGKPDKDSKKEKKGLLKLLSGASTKRKPRVSPPASPTLDVELGAGEAPLQGAVGPELPLGGSHGRVGSCPTDGDGPVAAGTAALAQDAFHRKTSSLDSAVPIAPPPRQACSSLGPVMNEARPVVCERHRVVVSYPPQSEAELELKEGDIVFVHKKREDGWFKGTLQRNGKTGLFPGSFVENI
B5: Abi3, endogenous in murine DC2.4 cells (natural protein)
chain: MAELQQLQQLQEFDIPTGREALRGNHSALLRVANYCEDNYLQATDKRKALEETMAFTTQALASVAYQVGNLAGHTLRMLDLQGAALRQVEAKMSTLGQMVNMHMEKVARREIGTLATVVRLPSNQKVIPPESLPSLTPYHRKPLNFACLDDIGHGVKDLSTQLSRTGTLSRKSIKAPATPVSATLGRPPRIPEPVQLPAVPDGKLSAASSASSLASAGSAEGASGIPQSKGQVAPATPPPPPVAPVTPPPPPLSAEVFLPPPPLEVSQPPLEAELPLPPPPALEGDELGLLPPPPPGFGPDEPSWVPASYLEKVVTLYPYTRQKDNELSFSEGTVICVTRRYSDGWCEGVSSEGTGFFPGNYVEPSC
B6: Brk1 (Hspc300), endogenous in murine DC2.4 cells (natural protein)
chain: MAGQEDPVQREIHQDWANREYIEIITSSIKKISDFLNSFDMSCRSRLATLNEKLTALERRIEYIEARVTKGETLT

Each binder was assayed against TgWIP^(PRR3 mut), HA-tagged (Toxoplasma gondii) (assay: affinity purification with mass spectrometry; HA-tagged TgWIP variants pulled down by the HA tag from lysates of DC2.4 cells infected 4 h at MOI 7; host partners by mass spectrometry; values are negative fold changes in peptide counts of the mutant immunoprecipitations relative to TgWIP^WT).

Binder	negative fold change in peptide counts relative to TgWIP^WT [fold]
B1	7
B2	30
B3	4
B4	6
B5	7
B6	9

Each binder was assayed against TgWIP^(PRR2 mut), HA-tagged (Toxoplasma gondii) in the same assay as above.

Binder	negative fold change in peptide counts relative to TgWIP^WT [fold]
B1	3
B2	14
B3	3
B4	10
B5	3
B6	4

What follows are binders tested against TgWIP^Y150A/Y199A, HA-tagged (Toxoplasma gondii) in the same assay as above.

Binder	negative fold change in peptide counts relative to TgWIP^WT [fold]
B1	2
B2	1
B3	1
B4	2
B5	1
B6	1

These binders were tested against TgWIP^(WIRS mut), HA-tagged (Toxoplasma gondii) in the same assay as above.

Binder	negative fold change in peptide counts relative to TgWIP^WT [fold]
B1	2
B2	2
B3	2
B4	2
B5	1
B6	3
